Laboratory results published in US20110230406A1 (ADVANCED TECHNOLOGIES AND REGENERATIVE MEDICINE, published 2011).
No end group written: not given here.

Assays:
human serum albumin [1] = target: T1, human serum albumin (human, UniProt P02768 25-609); experiment: phage ELISA titration, HSA-coated wells, HRP anti-M13 antibody, luminescence
T1 construct: Cross-reactivity control coated at 5 micrograms/mL; also called HSA
Description: (§1) 96-well black ELISA plates were coated with streptavidin (Rows A through D), hIgG (Rows E and F) and human serum albumin (Rows G and H), at a concentration of 5 micrograms/mL in PBS. Plates were incubated overnight at 4° C. Plates were washed 3 times with TBST using a plate washer. To the streptavidin-coated wells in rows C and D, 100 microliters of a 4 micrograms/mL solution of biotinylated-BMP-2 (R&D Systems, Minneapolis, Minn., Item number 355-BM/CF), was introduced and allowed to sit at room temperature for 30 minutes. To all other wells, 100 microliters of PBS was introduced. The plates were again washed 3 times with TBST using the plate washer. The wells were then blocked with 250 microliters of a 3% dehydrated milk suspension in TBST and allowed to sit at room temperature for a minimum of 1 hour. Using phage concentrations determined by the phage titrations, dilutions of the phage stock solutions were performed in a separate 96-well plate to result in phage concentrations of 10¹⁰, 10⁹, 10⁸, 10⁷, 10⁶ and 10⁵ phage/well. After blocking, the ELISA plate was washed 3 times with TBST and 100 microliters of the phage dilutions were introduced to the respective ELISA plates and allowed to sit at room temperature for a minimum of 1 hour. […] The luminescence was read using a luminometer set with a gain of 150.

human IgG = target: T2, human IgG (human); experiment: phage ELISA titration, hIgG-coated wells, HRP anti-M13 antibody, luminescence
T2 construct: Cross-reactivity control coated at 5 micrograms/mL; also called hIgG
Description: as §1

[2] = target: T3, biotinylated BMP-2 (R&D Systems, Item number 355-BM/CF) (human, UniProt P12643 283-396, biotinylated (sites not given)); experiment: phage ELISA titration, biotinylated BMP-2 captured on streptavidin-coated wells, HRP anti-M13 antibody, luminescence
T3 construct: Bought protein, biotinylated, captured on streptavidin plates (phage ELISA) or streptavidin donor beads (ALPHA); also called bone morphogenic protein-2
T3 sequence (P12643 283-396 limits assumed): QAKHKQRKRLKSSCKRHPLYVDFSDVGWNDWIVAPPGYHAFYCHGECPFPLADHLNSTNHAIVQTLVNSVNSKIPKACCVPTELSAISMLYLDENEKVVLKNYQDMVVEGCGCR
Description: (§2) 96-well black ELISA plates were coated with streptavidin (Rows A through D), hIgG (Rows E and F) and human serum albumin (Rows G and H), at a concentration of 5 micrograms/mL in PBS. Plates were incubated overnight at 4° C. Plates were washed 3 times with TBST using a plate washer. To the streptavidin-coated wells in rows C and D, 100 microliters of a 4 micrograms/mL solution of biotinylated-BMP-2 (R&D Systems, Minneapolis, Minn., Item number 355-BM/CF), was introduced and allowed to sit at room temperature for 30 minutes. To all other wells, 100 microliters of PBS was introduced. The plates were again washed 3 times with TBST using the plate washer. The wells were then blocked with 250 microliters of a 3% dehydrated milk suspension in TBST and allowed to sit at room temperature for a minimum of 1 hour. Using phage concentrations determined by the phage titrations, dilutions of the phage stock solutions were performed in a separate 96-well plate to result in phage concentrations of 10¹⁰, 10⁹, 10⁸, 10⁷, 10⁶ and 10⁵ phage/well. After blocking, the ELISA plate was washed 3 times with TBST and 100 microliters of the phage dilutions were introduced to the respective ELISA plates and allowed to sit at room temperature for a minimum of 1 hour. The ELISA plate was again washed 3 times with TBST using the plate washer and 100 microliters of an HRP-conjugated Anti-M13 Phage Mab (1:5000 dilution in PBS) was introduced to each well. The plates were allowed to sit at room temperature for 1 hour after which time the plates were washed 3 times with TBST. Next, a POD HRP-substrate was introduced to each well. The luminescence was read using a luminometer set with a gain of 150.

[3] = target: T4, rhBMP-2 (R&D Systems, Item number 355-BM/CF) (human, UniProt P12643 283-396); experiment: SPR (Biacore S51), rhBMP-2 on CM4 chip, peptide at 5 micromolar, 1:1 Langmuir fit, N=3
T4 construct: Coupled to a CM4 chip by EDC/NHS in SPR; also called human recombinant BMP-2
T4 sequence (P12643 283-396 limits assumed): as above
Description: Peptide binding affinity to BMP-2 was evaluated for SEQ ID NO: 3 and SEQ ID NO: 6 by surface plasmon resonance measurements. Measurements were performed on a Biacore S51 (Biacore Life Sciences, Piscataway, N.J.) instrument using a CM4 Series-S sensor chip. rhBMP-2 (R&D Systems, Minneapolis, Minn., Item number 355-BM/CF) was immobilized on the sensor chip using 1-ethyl-3[3-dimethylaminopropyl]carbodiimide hydrochloride (EDC)/N-hydroxysuccinimide (NHS) coupling chemistry. […] Data were fit to a 1:1 Langmuir binding model using Biacore Analysis Software (Biacore Life Sciences, Piscataway, N.J.).
The data shown in Table 2 are average equilibrium dissociation constants with an N value of 3.

[4] = target: T3, biotinylated BMP-2 (R&D Systems, Item …); experiment: ALPHA, biotinylated BMP-2 at 0.825 micrograms/mL, Ni-acceptor and streptavidin-donor beads
Description: Diluted stock of biotinylated BMP-2 (R&D Systems, Minneapolis, Minn., Item number 355-BM/CF) at 3.3 micrograms/ml was prepared in 2× assay buffer (PBS, 0.01% Tween-80, 0.05% BSA). Chemically synthesized peptides having SEQ ID NO: 1, SEQ ID NO: 2, SEQ ID NO: 3, and SEQ ID NO: 6 were prepared using standard, automated Fluorenylmethyloxycarbonyl (Fmoc) solid phase peptide synthesis procedures. Each peptide solution for the assay was prepared from a 100 microgram/mL stock solution. The stock solution was serially diluted in ½ log steps in assay buffer resulting in peptide concentrations of 100, 33.3, 11.1, 3.70, 1.23, 0.41, 0.14, 0.046, 0.015, 0.0051, 0.0017 and 0.00056 micrograms/mL. Subsequently, serially diluted peptides were added to the corresponding wells containing the 10 microliters of the 3.3 microgram/mL solution of biotinylated BMP-2. Final assay test concentration for biotinylated BMP-2 was 0.825 micrograms/mL. Final peptide concentrations were 25, 8.3, 2.8, 0.93, 0.31, 0.10, 0.03, 0.01, 0.003, 0.001, 0.0003 and 0.0001 micrograms/mL. Next, Nickel (Ni)-acceptor and streptavidin (SA)-donor beads (Perkin Elmer, Waltham, Mass., Item number 6760619M) were diluted 1:100 in assay buffer prior to adding 20 microliters to each test well. […] The emission of the plate was read using a dual wavelength fluorometer (Perkin Elmer (Waltham, Mass.) Envision 2101 Multilabel Reader).

human serum albumin [5] = target: T1, human serum albumin; experiment: phage ELISA, HSA-coated wells, HRP anti-M13 antibody, luminescence
Description: as §2

Streptavidin = experiment: phage ELISA titration, streptavidin-coated wells without BMP-2, HRP anti-M13 antibody, luminescence
Description: as §1

B1: phage displaying the peptide of SEQ ID NO: 4 on the pIX minor coat protein (peptide)
peptide: AGFRWWHTQPAHTLSYT
modifications: also: displayed on phage pIX minor coat protein, junction not given here
notes: not shown: pIX minor coat protein of the phage that carries the peptide
For B1, the binding result (human serum albumin [1]) was “binds”, the “EC50 (read off the curve)” value (human IgG) was about 1e+08 phage/well and the binding result [2] was “binds”.

B2: chemically synthesized peptide having SEQ ID NO: 3 (peptide)
peptide: AGYTSFALLKSAESTLP
notes: Fmoc solid phase synthesis; used in ALPHA and SPR
B2 was tested, and the Kd [3] was 398 nM.

B3: chemically synthesized peptide having SEQ ID NO: 6 (peptide)
peptide: AGRDSFNLLTSSPLPST
notes: Fmoc solid phase synthesis; used in ALPHA, SPR and the alkaline phosphatase assay
B3 gave a Kd [3] of 303 nM.

AGPPGPYIAASAFLALK (Fmoc solid phase synthesis) [chemically synthesized peptide having SEQ ID NO: 2]: binds [4].

AGLPLQSMSRLSYDSLS (Fmoc solid phase synthesis) [chemically synthesized peptide having SEQ ID NO: 1]: binds [4].

B4: phage displaying the peptide of SEQ ID NO: 3 on the pIX minor coat protein (peptide)
peptide: AGYTSFALLKSAESTLP
modifications: also: displayed on phage pIX coat protein fusion
notes: as for B1
In the case of B4, the binding result (human serum albumin [5]) is reported as “no binding (tested: 10^9 phage/mL)”, the binding result (Streptavidin) is reported as “no binding (tested: 1.00E+10 phage/well)” and the “EC50 (read off the curve)” value [2] is reported as about 1e+08 phage/well.
